Laboratory results reported in patent publication US20180282404A1 (Hoffmann-La Roche, published 2018).

Legend:
[1] = target: T1, Human angiopoietin-1 (ANG-1) with His-tag (human, UniProt Q15389 16-498); assay: ANG-1 binding ELISA, human ANG-1 coated, antibody titrated
T1 construct: The assays used Angiopoietin-1-His, either R&D Systems #923-AN or in-house material; also called hANG-1; huAng-1
T1 sequence: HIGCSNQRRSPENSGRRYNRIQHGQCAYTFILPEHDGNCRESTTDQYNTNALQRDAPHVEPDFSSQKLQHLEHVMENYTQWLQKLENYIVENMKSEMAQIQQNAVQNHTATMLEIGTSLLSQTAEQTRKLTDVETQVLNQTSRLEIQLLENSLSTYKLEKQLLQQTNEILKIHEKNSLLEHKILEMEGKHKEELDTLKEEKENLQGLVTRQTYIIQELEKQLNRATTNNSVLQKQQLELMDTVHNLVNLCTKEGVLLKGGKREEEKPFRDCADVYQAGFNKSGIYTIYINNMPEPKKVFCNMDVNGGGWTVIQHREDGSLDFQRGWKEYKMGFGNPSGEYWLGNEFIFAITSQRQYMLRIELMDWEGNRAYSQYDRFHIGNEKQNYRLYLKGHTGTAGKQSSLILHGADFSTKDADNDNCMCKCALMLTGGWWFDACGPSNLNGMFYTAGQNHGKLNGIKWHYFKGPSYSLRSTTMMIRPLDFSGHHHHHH
Protocol: (§1) The wells were washed three times with 300 μl PBST (0.2% Tween® 20) and blocked with 200 μl 2% BSA 0.1% Tween® 20 for 30 min at room temperature and subsequently washed three times with 300 μl PBST. […] The wells were washed three times with 300 μl PBST (0.2% Tween® 20) and bound antibody was detected with 100 μL/well 0.1 μg/ml F(ab′) POD (Biozol Cat. No. 206005) in 2% BSA 0.1% Tween® 20 as detection antibody for 1 h on a microtiterplate shaker at room temperature. Unbound detection antibody was washed away three times with 300 μL/well PBST and the bound detection antibody was detected by addition of 100 μL ABTS/well. Determination of absorbance was performed on a Tecan Fluor Spectrometer at a measurement wavelength of 405 nm (reference wavelength 492 nm).
(§2) Briefly, the ELISA-type assay is based on the immobilization of human wild-type Angiopoietin-1 or -2 in a microtiter plate.

[2] = target: T2, Human angiopoietin-2 (ANG-2) with His-tag (human, UniProt O15123 19-496); assay: ANG-2 binding ELISA, human ANG-2 coated, antibody titrated
T2 construct: The assays used full-length Angiopoietin-2-His, either R&D Systems #623-AN or in-house material; also called hANG-2; hAng-2
T2 sequence: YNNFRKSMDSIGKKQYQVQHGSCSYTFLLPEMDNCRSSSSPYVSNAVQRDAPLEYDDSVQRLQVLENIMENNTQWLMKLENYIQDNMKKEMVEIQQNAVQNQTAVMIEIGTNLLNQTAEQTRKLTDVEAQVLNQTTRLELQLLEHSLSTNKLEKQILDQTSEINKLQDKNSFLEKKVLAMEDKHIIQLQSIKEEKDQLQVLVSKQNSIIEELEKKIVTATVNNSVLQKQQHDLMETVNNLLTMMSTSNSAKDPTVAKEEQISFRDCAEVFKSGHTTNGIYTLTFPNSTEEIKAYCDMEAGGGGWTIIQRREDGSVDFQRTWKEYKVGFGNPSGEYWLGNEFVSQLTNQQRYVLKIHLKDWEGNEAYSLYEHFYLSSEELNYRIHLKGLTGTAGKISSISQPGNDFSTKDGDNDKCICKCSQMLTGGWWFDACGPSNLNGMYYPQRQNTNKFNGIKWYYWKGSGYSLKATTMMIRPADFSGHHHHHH
Protocol: as §1, §2

[3] = target: T1, Human angiopoietin-1 (ANG-1) with …; assay: SPR (Biacore): huAng-1 amine-coupled on a CM5 chip (appr. 20000 RU), BSA on the reference cell, antibody 100 nM in HBS-P injected for 3 min, 3 min dissociation
Protocol: The protein was injected for 20 min in sodium acetate pH 4.5 at 10 μg/ml at a flow rate of 5 μl/min. […] On the reference flow cell BSA was immobilized under the same conditions. The antibodies were diluted in HBS-P to 100 nM and injected for 3 min (association phase). After washing with running buffer for 3 min (dissociation phase), the surface was regenerated by injecting 10 mM sodium hydroxide for 1 min at 5 μl/min.

[4] = target: T2, Human angiopoietin-2 (ANG-2) with …; assay: Biacore SPR, antibody captured by anti-Fc, ANG-2-His in solution, 1:1 model, Experiment 2
Protocol: (§3) Biacore® T100 Evaluation Software version 1.1.1 was used for analysis of sensorgrams and for calculation of affinity data.
(§4) The affinity for this interaction is determined with the assumption of a 1:1 interaction. Details of this experiment can be found in the general methods section.

[5] = target: T2, Human angiopoietin-2 (ANG-2) with …; assay: cell-based or functional assay
[6] = target: T2, Human angiopoietin-2 (ANG-2) with …; assay: Biacore SPR, antibody captured by anti-Fc, ANG-2-His in solution, 1:1 model, Experiment 1
Protocol: as §3, §4

[7] = target: T2, Human angiopoietin-2 (ANG-2) with …; assay: ANGPT2/Tie2 interaction ELISA: antibody titrated with 0.2 ug/ml huAngiopoietin-2 on coated Tie2 (printed as 'inhibitory concentrations')
Protocol: The interaction ELISA was performed on 384 well microtiter plates (MicroCoat, DE, Cat. No. 464718) at RT. After each incubation step plates were washed 3 times with PBST. ELISA plates were coated with 0.5 μg/ml Tie-2 protein (R&D Systems, UK, Cat. No. 313-TI) for at least 2 hours (h). Thereafter the wells were blocked with PBS supplemented with 0.2% Tween® 20 and 2% BSA (Roche Diagnostics GmbH, DE) for 1 h. […] After washing a mixture of 0.5 μg/ml biotinylated anti-Angiopoietin-2 clone BAM0981 (R&D Systems, UK) and 1:3000 diluted streptavidin HRP (Roche Diagnostics GmbH, DE, Cat. No. 11089153001) was added for 1 h. Thereafter the plates were washed 6 times with PBST. Plates were developed with freshly prepared ABTS reagent (Roche Diagnostics GmbH, DE, buffer #204 530 001, tablets #11 112 422 001) for 30 minutes at RT. Absorbance was measured at 405 nm.
(§5) 384-well Maxisorp® plates (Nunc) were coated with 0.5 μg/ml human Tie2 (R&D Systems, UK, Cat. No. 313-TI or in house produced material) for 2 h at room temperature and blocked with PBS supplemented with 0.2% Tween® 20 and 2% BSA (Roche Diagnostics GmbH, DE) for 1 h at room temperature under shaking. […] After washing a mixture of 0.5 μg/ml biotinylated anti-Angiopoietin-1/2 clone (R&D Systems #BAF923, BAM0981 R&D Systems, UK) and 1:3000 diluted streptavidin HRP (Roche Diagnostics GmbH, DE, Cat. No. 11089153001) was added for 1 h. Thereafter the plates were washed 6 times with PBST. Plates were developed with freshly prepared ABTS reagent (Roche Diagnostics GmbH, DE, buffer #204 530 001, tablets #11 112 422 001) for 30 minutes at RT. Absorbance was measured at 405 nm.

[8] = target: T2, Human angiopoietin-2 (ANG-2) with …; assay: Biacore SPR, antibody captured by anti-Fc, ANG-2-His in solution, 1:1 model, average of Experiments 1 + 2
Protocol: as §3, §4

[9] = target: T1, Human angiopoietin-1 (ANG-1) with …; assay: cell-based or functional assay
[10] = target: T1, Human angiopoietin-1 (ANG-1) with …; assay: ANGPT1/Tie2 interaction ELISA: antibody titrated with 0.2 ug/ml huAngiopoietin-1 on coated Tie2 (printed as 'inhibitory concentrations')
Protocol: After each incubation step plates were washed 3 times with PBST. […] Thereafter the wells were blocked with PBS supplemented with 0.2% Tween® 20 and 2% BSA (Roche Diagnostics GmbH, DE) for 1 h. […] Thereafter the plates were washed 6 times with PBST. Plates were developed with freshly prepared ABTS reagent (Roche Diagnostics GmbH, DE, buffer #204 530 001, tablets #11 112 422 001) for 30 minutes at RT. Absorbance was measured at 405 nm.
as §5

B1: <ANG-2> Ang2i_LC07 (antibody, V domains shown)
VH: not shown
VL: QPVLTQSPSVSVAPGETARVACGGNFIGGKSVHWYQQKPGQAPVLVIYDDSERPSGIPERISGSNSGNTATLIITRAEAGDEADYHCQVWDSDSDQGVFGTGTKLTVLG
notes: Only the variable domains are tied to this antibody
EC50 [1]: > 8 µg/mL | EC50 [2]: 3.01 µg/mL

B2: <ANG-2> Ang2i_LC10 (antibody, V domains shown)
VH: not shown
VL: QPPSVSVAPGQTARITCGGNNIGSKSVHWYQQKPGQAPVLVVYDDSDRPSGIPERFSGSNSGNTATLTISRVEAGDEADYYCQVWDSSSDHWVFGGGTKLTVLG
binding result [3]: no binding (tested: 100 nM)

B3: <ANG-2> Ang2i_LC06 (antibody, V domains shown)
VH: not shown
VL: QPGLTQPPSVSVAPGQTARITCGGNNIGSKSVHWYQQKPGQAPVLVVYDDSDRPSGIPERFSGSNSGNTATLTISRVEAGDEADYYCQVWDSSSDHYVFGTGTKVTVLG
notes: as for B1
Kd [4]: 0.021 nM | koff [4]: 0.000114 s⁻¹ | EC50 [1]: > 8 µg/mL | IC50 of ANGPT2 stimulated Tie2 phosphorylation (HEK293-Tie2 clone22, P-Tie2 sandwich ELISA) [5]: ~0.508 µg/mL | Kd [6]: 0.011 nM | koff [6]: 7.16e-05 s⁻¹ | EC50 [2]: 0.084 µg/mL | IC50 [7]: 0.1 nM | Kd [8]: 0.016 nM

B4: human anti-ANG-2 antibody <ANG-2> antibody Mab536 (antibody, V domains shown)
VH: EVQLVQSGGGVVQPGRSLRLSCAASGFTFSSYGMHWVRQAPGKGLEWVSYISSSGSTIYYADSVKGRFTISRDNAKNSLYLQMNSLRAEDTAVYYCARDLLDYDILTGYGYWGQGTLVTVSS
VL: not shown
Kd [4]: 0.029 nM | koff [4]: 0.000125 s⁻¹ | EC50 [1]: 2.54 µg/mL | Kd [6]: 0.029 nM | koff [6]: 0.000144 s⁻¹ | EC50 [2]: 0.133 µg/mL | IC50 [7]: 0.15 nM | Kd [8]: 0.029 nM

B5: <ANG-2> Ang2k_LC08 (antibody, V domains shown)
VH: QVQLVESGGGVVQPGGSLRLSCAASGFTFSSYGMHWVRQAPGKGLEWVAVISYDGSNKYYADSVKGRFTISRDNSKNTLYLQMNSLRAEDTAVYYCAKPTLDIYMGYYYGMDVWGQGTTVTVSS
VL: QPVLTQPPSASGAPGQRVTISCSGFASNIGSNSVNWYQQVPGTAPKLLIYNNDQRPSGVPDRFSGSRSGTSASLAISGLQSEDEADYYCAAWDDSLNGPVFGGGTKLTVLG
notes: as for B1
Kd [4]: 0.027 nM | koff [4]: 0.000228 s⁻¹ | EC50 [1]: 4.04 µg/mL | IC50 of ANGPT1 stimulated Tie2 phosphorylation (HEK293-Tie2 clone22, P-Tie2 sandwich ELISA) [9]: ~0.391 µg/mL | IC50 of ANGPT2 stimulated Tie2 phosphorylation (HEK293-Tie2 clone22, P-Tie2 sandwich ELISA) [5]: ~0.499 µg/mL | Kd [6]: 0.016 nM | koff [6]: 0.000161 s⁻¹ | EC50 [2]: 0.105 µg/mL | IC50 [7]: 0.17 nM | IC50 [10]: 11 nM | Kd [8]: 0.022 nM
